In article PMC2728405:

Target: microtubules preformed from purified tubulin (taxol-stabilized) (UniProt Q6B856)
Assay: co-sedimentation

Which stoichiometry N (α-β tubulin heterodimers per Dp260) does the source give for purified recombinant Flag-tagged Dp260 here?
Its stoichiometry N (α-β tubulin heterodimers per Dp260) is 1.4.
